Data taken from PMC11154964, “The Light Chain Allosterically Enhances the Protease Activity of Murine Urokinase-Type Plasminogen Activator” (Biochemistry, 2024).
Values belong to the molecule of their own block, whether it stands above or below them. Ends that are not written are not given here.

Tests used:
[1] = molecular target: protease domain (heavy chain) of murine urokinase-type plasminogen activator (muPA WT, after plasmin cleavage) (mouse (murine)) (UniProt P06869)
[2] = molecular target: T1, protease domain (heavy chain) of murine urokinase-type plasminogen activator (muPA WT, after plasmin cleavage) (mouse (murine), UniProt P06869 180-433, C281 (122CT) disulfide-bonded to C149 (1CT) of the light chain); assay: HDX-MS; two-chain muPA (light chain disulfide-bonded to the protease domain; WT 20 μM, F(−2)CTA 8.5 μM, K4CTG 13 μM) compared with No-Light-Chain muPA (10 μM); PBS pH 7.4, 22 °C, deuteration 0, 30, 60, 120, 600 s; details: both partners purified
T1 construct: Stood in the assay as one of the two chains of muPA WT or of its light-chain mutants; also called serine protease domain
T1 sequence (P06869 180-433): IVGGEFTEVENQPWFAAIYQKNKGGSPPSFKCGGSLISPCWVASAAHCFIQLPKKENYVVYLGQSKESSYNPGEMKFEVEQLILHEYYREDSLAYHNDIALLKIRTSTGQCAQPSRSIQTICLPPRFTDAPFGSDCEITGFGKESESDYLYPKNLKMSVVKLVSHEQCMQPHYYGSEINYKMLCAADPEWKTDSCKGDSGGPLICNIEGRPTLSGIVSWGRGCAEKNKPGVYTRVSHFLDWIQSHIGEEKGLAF

[3] = molecular target: T1, protease domain (heavy chain) of murine …; assay: cell-based or functional assay

Sequence of protease domain (heavy chain) of murine urokinase-type plasminogen activator (muPA WT, after plasmin cleavage) (mouse (murine)) (P06869 180-433): as above

kcat of the amidolytic activity (chromogenic substrate S2444) of two-chain muPA F(−2CT)A [1]: 12 s^–1
Molecule: light chain of muPA with the mutation F(−2CT)A (from UniProt P06869 153-179) (domain or fragment)

binding result [2]: binds
B1: disordered light chain of murine urokinase-type plasminogen activator (muPA WT, after plasmin cleavage) (domain or fragment, mouse (murine), UniProt P06869 153-179, looked up)
chain: SLSKKPSSSVDQQGFQCGQKALRPRFK
modifications: not fully specified; also: disulfide to Cys281 of the protease domain chain, disulfide at 17, other end not in the chain
notes: Stood in the assay as one of the two chains of muPA WT (133-413), tethered to m2 by a disulfide bond; The construct has an N-terminal 6xHis-tag and a TEV protease cleavage site; also called disordered linker; light chain of muPA WT

kcat of the amidolytic activity (chromogenic substrate S2444) of two-chain muPA K4CTG [3]: 22 s^–1
B2: light chain of muPA with the mutation K4CTG (domain or fragment, mouse (murine), UniProt P06869 153-179, looked up)
chain: SLSKKPSSSVDQQGFQCGQGALRPRFK
modifications: not fully specified; also: disulfide to Cys281 of the protease domain chain, disulfide at 17, other end not in the chain
